# Test results reported in patent US20110207796.
# Target: human alpha-synuclein (wild-type, recombinant)
protein,measurement,value
IKBKB (protein) MSWSPSLTTQTCGAWEMKERLGTGGFGNVIRWHNQETGEQIAIKQCRQELSPRNRERWCLEIQIMRRLTHPNVVAARDVPEGMQNLAPNDLPLLAMEYCQGGDLRKYLNQFENCCGLREGAILTLLSDIASALRYLHENRIIHRDLKPENIVLQQGEQRLIHKIIDLGYAKELDQGSLCTSFVGTLQYLAPELLEQQKYTVTVDYWSFGTLAFECITGFRPFLPNWQPVQWHSKVRQKSEVDIVVSEDLNGTVKFSSSLPYPNNLNSVLAERLEKWLQLMLMWHPRQRGTDPTYGPNGCFKALDDILNLKLVHILNMVTGTIHTYPVTEDESLQSLKARIQQDTGIPEEDQELLQEAGLALIPDKPATQCISDGKLNEGHTLDMDLVFLFDNSKITYETQISPRPQPESVSCILQEPKRNLAFFQLRKVWGQVWHSIQTLKEDCNRLQQGQRAAMMNLLRNNSCLSKMKNSMASMSQQLKAKLDFFKTSIQIDLEKYSEQTEFGITSDKLLLAWREMEQAVELCGRENEVKLLVERMMALQTDIVDLQRSPMGRKQGGTLDDLEEQARELYRRLREKPRDQRTEGDSQEMVRLLLQAIQSFEKKVRVIYTQLSKTVVCKQKALELLPKVEEVVSLMNEDEKTVVRLQEKRQKELWNLLKIACSKVRGPVSGSPDSMNASRLSQPGQLMSQPSTASNSLPEPAKKSEELVAEAHNLCTLLENAIQDTVREQDQSFTALDWSWLQTEEEEHSCLEQAS,"in vitro kinase reaction, phosphorylation of alpha-synuclein",shown to be incapable of directly phosphorylating alpha-synuclein
